Results reported in patent US20210196796A1 (SYNTHEKINE, published 2021).
Substitutions are numbered along the chain they refer to. Names may count otherwise.

T1: orthogonal hCD122 receptor (hoRb), hCD122 with H133D and Y134F (human, UniProt P14784 27-550)
T1 sequence: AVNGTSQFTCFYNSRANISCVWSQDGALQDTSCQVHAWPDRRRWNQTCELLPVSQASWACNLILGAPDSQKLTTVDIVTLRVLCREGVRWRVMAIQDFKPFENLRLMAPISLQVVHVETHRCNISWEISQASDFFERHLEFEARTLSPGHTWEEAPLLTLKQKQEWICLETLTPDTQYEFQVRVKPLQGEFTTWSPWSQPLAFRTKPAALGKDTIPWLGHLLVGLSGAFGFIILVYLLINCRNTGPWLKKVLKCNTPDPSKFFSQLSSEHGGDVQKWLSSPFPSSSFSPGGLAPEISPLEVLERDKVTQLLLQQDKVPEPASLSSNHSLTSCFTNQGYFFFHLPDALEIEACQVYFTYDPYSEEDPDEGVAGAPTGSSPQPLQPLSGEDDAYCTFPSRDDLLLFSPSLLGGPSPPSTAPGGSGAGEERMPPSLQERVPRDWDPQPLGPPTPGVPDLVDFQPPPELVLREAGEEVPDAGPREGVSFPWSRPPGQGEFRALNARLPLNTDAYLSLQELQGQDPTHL

B1: Q126G, SQVLKA (ligand)
chain: APTSSSTKKTQLQLSQLLVLLKAILNGINNYKNPKLTRMLTFKFYMPKKATELKHLQCLEEELKPLEEVLNLAQSKNFHLRPRDLISNINVIVLELKGSETTFMCEYADETATIVEFLNRWITFCGSIISTLT
B2: Q126T, SQVLKA (ligand)
chain: B1 chain with G126T
B3: KQVLKA (ligand)
chain: B1 chain with S15K, G126Q
B4: TQVLKA (ligand)
chain: B1 chain with S15T, G126Q
B5: Q126S, SQVLKA (ligand)
chain: B1 chain with G126S
B6: Q126I, SQVLKA (ligand)
chain: B1 chain with G126I
B7: SNVLKA (ligand)
chain: B1 chain with Q16N, G126Q
B8: L18M, SQVLKA (ligand)
chain: B1 chain with L18M, G126Q
B9: Q126R, SQVLKA (ligand)
chain: B1 chain with G126R
B10: L18G, SQVLKA (ligand)
chain: B1 chain with L18G, G126Q
B11: ΔH16, S_VLKA (ligand)
chain: APTSSSTKKTQLQLSLLVLLKAILNGINNYKNPKLTRMLTFKFYMPKKATELKHLQCLEEELKPLEEVLNLAQSKNFHLRPRDLISNINVIVLELKGSETTFMCEYADETATIVEFLNRWITFCQSIISTLT

molecular target: T1, orthogonal hCD122 receptor (hoRb), …; assay: cell-based or functional assay
Wherever Relative Proliferation Fold Change 3F8 1:10 is given: reference of the scale not given here.
Wherever Relative Proliferation Fold Change 3F8 1:2 is given: reference of the scale not given here.
Wherever Relative Proliferation Fold Change 3F8 1:50 is given: reference of the scale not given here.
Wherever Relative Proliferation Fold Change NKL 1:10 is given: reference of the scale not given here.
Wherever Relative Proliferation Fold Change NKL 1:2 is given: reference of the scale not given here.
Wherever Relative Proliferation Fold Change NKL 1:50 is given: reference of the scale not given here.

| NKL Ortho Proliferation Signal 1:2 | NKL Ortho Proliferation Signal 1:10 | NKL Ortho Proliferation Signal 1:50 | Relative Proliferation Fold Change NKL 1:2 [fold] | Relative Proliferation Fold Change NKL 1:10 [fold] | Relative Proliferation Fold Change NKL 1:50 [fold] | Binder |
| --- | --- | --- | --- | --- | --- | --- |
| 5740 | 7220 | 6050 | 0.45 | 0.49 | 0.45 | B1 |
| 5980 | 6750 | 5180 | 0.44 | 0.47 | 0.41 | B2 |
| 71200 | 67600 | 38900 | 5.12 | 4.36 | 2.63 | B3 |
| 50400 | 57900 | 27800 | 3.46 | 3.31 | 1.75 | B4 |
| 9460 | 7880 | 6310 | 0.71 | 0.57 | 0.5 | B5 |
| 40000 | 35600 | 16700 | 3.78 | 2.5 | 1.25 | B6 |
| 46800 | 39700 | 18300 | 2.94 | 2.19 | 1.09 | B7 |
| 42700 | 43900 | 22100 | 3.7 | 2.72 | 1.55 | B8 |
| 13900 | 9670 | 6650 | 1.18 | 0.75 | 0.57 | B9 |
| 15400 | 13400 | 8640 | 1.05 | 0.83 | 0.57 | B10 |
| 20900 | 14200 | 9760 | 1.32 | 0.84 | 0.62 | B11 |

molecular target: T1, orthogonal hCD122 receptor (hoRb), …; assay: cell-based or functional assay; remark: another data set of the same source

| 3F8 Ortho Proliferation Signal 1:2 [cts/min] | 3F8 Ortho Proliferation Signal 1:10 [cts/min] | 3F8 Ortho Proliferation Signal 1:50 [cts/min] | Relative Proliferation Fold Change 3F8 1:2 [fold] | Relative Proliferation Fold Change 3F8 1:10 [fold] | Relative Proliferation Fold Change 3F8 1:50 [fold] | Binder |
| --- | --- | --- | --- | --- | --- | --- |
| 1540 | 1100 | 838 | 7.05 | 2.14 | 1.14 | B1 |
| 3380 | 1880 | 1320 | 0.28 | 0.54 | 1.92 | B2 |
| 35200 | 36800 | 24000 | 4.86 | 3.88 | 23 | B3 |
| 29100 | 35900 | 17000 | 2.6 | 16 | 8.69 | B4 |
| 9540 | 2870 | 826 | 19.3 | 3.69 | 1.6 | B5 |
| 27400 | 27000 | 9510 | 30 | 11.3 | 8.69 | B6 |
| 31400 | 32700 | 19000 | 9.2 | 11.8 | 4.79 | B7 |
| 42000 | 48500 | 37200 | 55 | 21.9 | 16.6 | B8 |
| 22400 | 18100 | 3710 | 0.49 | 1.44 | 1.37 | B9 |
| 37700 | 25900 | 9750 | 52.9 | 17 | 3.79 | B10 |
| 2360 | 4420 | 1670 | 3.49 | 1.68 | 1.33 | B11 |
